No end group written: not given here. *: point of attachment. Succinimide(1-Et,3-yl) = CCN1C(=O)CC(*)C1=O
T1: human CRH receptor type 2 (human, UniProt Q13324 1-411)
T1 sequence (looked up): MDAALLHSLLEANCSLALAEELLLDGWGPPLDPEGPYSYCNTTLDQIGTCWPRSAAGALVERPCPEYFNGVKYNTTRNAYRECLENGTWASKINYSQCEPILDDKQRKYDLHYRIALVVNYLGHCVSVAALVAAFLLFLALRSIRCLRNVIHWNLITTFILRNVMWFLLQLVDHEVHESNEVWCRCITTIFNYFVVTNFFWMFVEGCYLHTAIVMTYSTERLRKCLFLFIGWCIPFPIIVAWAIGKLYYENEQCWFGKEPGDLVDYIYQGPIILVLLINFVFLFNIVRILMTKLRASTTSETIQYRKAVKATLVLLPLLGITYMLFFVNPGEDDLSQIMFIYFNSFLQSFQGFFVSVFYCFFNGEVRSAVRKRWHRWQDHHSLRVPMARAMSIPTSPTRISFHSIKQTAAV


target: T1, human CRH receptor type 2; test: cell-based or functional assay

| Binder | Log DR against h-SCP, cAMP | pA50, cAMP |
| --- | --- | --- |
| TKFTLSLDVPTNIMNLLFC(Succinimide(1-Et,3-yl))IAKAKNLRAQAAANAHLMAQI-NH2 (N-terminus assumed; SMILES CC[C@H](C)[C@H](NC(=O)[C@H](CCC(N)=O)NC(=O)[C@H](C)NC(=O)[C@H](CCSC)NC(=O)[C@H](CC(C)C)NC(=O)[C@H](Cc1c[nH]cn1)NC(=O)[C@H](C)NC(=O)[C@H](CC(N)=O)NC(=O)[C@H](C)NC(=O)[C@H](C)NC(=O)[C@H](C)NC(=O)[C@H](CCC(N)=O)NC(=O)[C@H](C)NC(=O)[C@H](CCCNC(=N)N)NC(=O)[C@H](CC(C)C)NC(=O)[C@H](CC(N)=O)NC(=O)[C@H](CCCCN)NC(=O)[C@H](C)NC(=O)[C@H](CCCCN)NC(=O)[C@H](C)NC(=O)[C@@H](NC(=O)[C@H](CSC1CC(=O)N(CC)C1=O)NC(=O)[C@H](Cc1ccccc1)NC(=O)[C@H](CC(C)C)NC(=O)[C@H](CC(C)C)NC(=O)[C@H](CC(N)=O)NC(=O)[C@H](CCSC)NC(=O)[C@@H](NC(=O)[C@H](CC(N)=O)NC(=O)[C@@H](NC(=O)[C@@H]1CCCN1C(=O)[C@@H](NC(=O)[C@H](CC(=O)O)NC(=O)[C@H](CC(C)C)NC(=O)[C@H](CO)NC(=O)[C@H](CC(C)C)NC(=O)[C@@H](NC(=O)[C@H](Cc1ccccc1)NC(=O)[C@H](CCCCN)NC(=O)[C@@H](N)[C@@H](C)O)[C@@H](C)O)C(C)C)[C@@H](C)O)[C@@H](C)CC)[C@@H](C)CC)C(N)=O) [Cys-variant of stresscopin peptide with N-Ethylsuccinimide (NES) reactive group, SEQ ID NO: 52] | 0.05 log10 ratio | 9.42 -log M |
| CKFTLSLDVPTNIMNLLFNIAKAKNLRAQAAANAHLMAQI (NES-PEG (about 20 kDa) on Cys 1; C-terminal amide) [Pegylated Cys-variant CRHR2 peptide agonist (NES linker, PEG about 20 kDa), SEQ ID NO: 55] | ~1.61 log10 ratio | ~7.93 -log M |
| TKFCLSLDVPTNIMNLLFNIAKAKNLRAQAAANAHLMAQI-NH2 [Cys-variant CRHR2 peptide agonist, SEQ ID NO: 5] | 0.76 log10 ratio | 8.93 -log M |
| TKFTCSLDVPTNIMNLLFNIAKAKNLRAQAAANAHLMAQI (NES-PEG (about 20 kDa) on Cys 5; C-terminal amide) [Pegylated Cys-variant CRHR2 peptide agonist (NES linker, PEG about 20 kDa), SEQ ID NO: 59] | ~2.32 log10 ratio | ~7.22 -log M |
| TKFTLCLDVPTNIMNLLFNIAKAKNLRAQAAANAHLMAQI-NH2 [Cys-variant CRHR2 peptide agonist, SEQ ID NO: 7] | 2.08 log10 ratio | 7.6 -log M |
| TKFTLCLDVPTNIMNLLFNIAKAKNLRAQAAANAHLMAQI (NES-PEG (about 20 kDa) on Cys 6; C-terminal amide) [Pegylated Cys-variant CRHR2 peptide agonist (NES linker, PEG about 20 kDa), SEQ ID NO: 60] | > 3.22 log10 ratio | ~6.32 -log M |
| TKFTLSCDVPTNIMNLLFNIAKAKNLRAQAAANAHLMAQI (NES-PEG (about 20 kDa) on Cys 7; C-terminal amide) [Pegylated Cys-variant CRHR2 peptide agonist (NES linker, PEG about 20 kDa), SEQ ID NO: 61] | > 3.32 log10 ratio | ~6.22 -log M |

Second part, the binder after the results:

| Log DR against h-SCP, cAMP | pA50, cAMP | Binder |
| --- | --- | --- |
| ~2.22 log10 ratio | ~7.25 -log M | TKFTLSLDVPTNIMNLC(Succinimide(1-Et,3-yl))FNIAKAKNLRAQAAANAHLMAQI-NH2 (N-terminus assumed; SMILES CC[C@H](C)[C@H](NC(=O)[C@H](CCC(N)=O)NC(=O)[C@H](C)NC(=O)[C@H](CCSC)NC(=O)[C@H](CC(C)C)NC(=O)[C@H](Cc1c[nH]cn1)NC(=O)[C@H](C)NC(=O)[C@H](CC(N)=O)NC(=O)[C@H](C)NC(=O)[C@H](C)NC(=O)[C@H](C)NC(=O)[C@H](CCC(N)=O)NC(=O)[C@H](C)NC(=O)[C@H](CCCNC(=N)N)NC(=O)[C@H](CC(C)C)NC(=O)[C@H](CC(N)=O)NC(=O)[C@H](CCCCN)NC(=O)[C@H](C)NC(=O)[C@H](CCCCN)NC(=O)[C@H](C)NC(=O)[C@@H](NC(=O)[C@H](CC(N)=O)NC(=O)[C@H](Cc1ccccc1)NC(=O)[C@H](CSC1CC(=O)N(CC)C1=O)NC(=O)[C@H](CC(C)C)NC(=O)[C@H](CC(N)=O)NC(=O)[C@H](CCSC)NC(=O)[C@@H](NC(=O)[C@H](CC(N)=O)NC(=O)[C@@H](NC(=O)[C@@H]1CCCN1C(=O)[C@@H](NC(=O)[C@H](CC(=O)O)NC(=O)[C@H](CC(C)C)NC(=O)[C@H](CO)NC(=O)[C@H](CC(C)C)NC(=O)[C@@H](NC(=O)[C@H](Cc1ccccc1)NC(=O)[C@H](CCCCN)NC(=O)[C@@H](N)[C@@H](C)O)[C@@H](C)O)C(C)C)[C@@H](C)O)[C@@H](C)CC)[C@@H](C)CC)C(N)=O) [Cys-variant of stresscopin peptide with N-Ethylsuccinimide (NES) reactive group, SEQ ID NO: 53] |
| -0.08 log10 ratio | 9.55 -log M | TKFTLSLDVPTNIMNC(Succinimide(1-Et,3-yl))LFNIAKAKNLRAQAAANAHLMAQI-NH2 (N-terminus assumed; SMILES CC[C@H](C)[C@H](NC(=O)[C@H](CCC(N)=O)NC(=O)[C@H](C)NC(=O)[C@H](CCSC)NC(=O)[C@H](CC(C)C)NC(=O)[C@H](Cc1c[nH]cn1)NC(=O)[C@H](C)NC(=O)[C@H](CC(N)=O)NC(=O)[C@H](C)NC(=O)[C@H](C)NC(=O)[C@H](C)NC(=O)[C@H](CCC(N)=O)NC(=O)[C@H](C)NC(=O)[C@H](CCCNC(=N)N)NC(=O)[C@H](CC(C)C)NC(=O)[C@H](CC(N)=O)NC(=O)[C@H](CCCCN)NC(=O)[C@H](C)NC(=O)[C@H](CCCCN)NC(=O)[C@H](C)NC(=O)[C@@H](NC(=O)[C@H](CC(N)=O)NC(=O)[C@H](Cc1ccccc1)NC(=O)[C@H](CC(C)C)NC(=O)[C@H](CSC1CC(=O)N(CC)C1=O)NC(=O)[C@H](CC(N)=O)NC(=O)[C@H](CCSC)NC(=O)[C@@H](NC(=O)[C@H](CC(N)=O)NC(=O)[C@@H](NC(=O)[C@@H]1CCCN1C(=O)[C@@H](NC(=O)[C@H](CC(=O)O)NC(=O)[C@H](CC(C)C)NC(=O)[C@H](CO)NC(=O)[C@H](CC(C)C)NC(=O)[C@@H](NC(=O)[C@H](Cc1ccccc1)NC(=O)[C@H](CCCCN)NC(=O)[C@@H](N)[C@@H](C)O)[C@@H](C)O)C(C)C)[C@@H](C)O)[C@@H](C)CC)[C@@H](C)CC)C(N)=O) [Cys-variant of stresscopin peptide with N-Ethylsuccinimide (NES) reactive group, SEQ ID NO: 54] |
| 0.72 log10 ratio | 8.97 -log M | CKFTLSLDVPTNIMNLLFNIAKAKNLRAQAAANAHLMAQI-NH2 [Cys-variant CRHR2 peptide agonist, SEQ ID NO: 2] |
| 0.72 log10 ratio | 8.97 -log M | TCFTLSLDVPTNIMNLLFNIAKAKNLRAQAAANAHLMAQI-NH2 [Cys-variant CRHR2 peptide agonist, SEQ ID NO: 3] |
| ~2.34 log10 ratio | ~7.2 -log M | TCFTLSLDVPTNIMNLLFNIAKAKNLRAQAAANAHLMAQI (NES-PEG (about 20 kDa) on Cys 2; C-terminal amide) [Pegylated Cys-variant CRHR2 peptide agonist (NES linker, PEG about 20 kDa), SEQ ID NO: 56] |
| 1.03 log10 ratio | 8.65 -log M | TKCTLSLDVPTNIMNLLFNIAKAKNLRAQAAANAHLMAQI-NH2 [Cys-variant CRHR2 peptide agonist, SEQ ID NO: 4] |
| ~1.9 log10 ratio | ~7.64 -log M | TKCTLSLDVPTNIMNLLFNIAKAKNLRAQAAANAHLMAQI (NES-PEG (about 20 kDa) on Cys 3; C-terminal amide) [Pegylated Cys-variant CRHR2 peptide agonist (NES linker, PEG about 20 kDa), SEQ ID NO: 57] |
| ~2.4 log10 ratio | ~7.14 -log M | TKFCLSLDVPTNIMNLLFNIAKAKNLRAQAAANAHLMAQI (NES-PEG (about 20 kDa) on Cys 4; C-terminal amide) [Pegylated Cys-variant CRHR2 peptide agonist (NES linker, PEG about 20 kDa), SEQ ID NO: 58] |
| 0.61 log10 ratio | 9.07 -log M | TKFTCSLDVPTNIMNLLFNIAKAKNLRAQAAANAHLMAQI-NH2 [Cys-variant CRHR2 peptide agonist, SEQ ID NO: 6] |
| 2.86 log10 ratio | ~6.82 -log M | TKFTLSCDVPTNIMNLLFNIAKAKNLRAQAAANAHLMAQI-NH2 [Cys-variant CRHR2 peptide agonist, SEQ ID NO: 8] |
